Assay results from publication PMC4989169.
Blank lines part the entries; values can stand above or below the molecule they belong to.

Legend:
active MASP-2cf (human) = test: enzyme inhibition assay (equilibrium KI from residual activity, photometric); enzymes co-incubated with serial dilutions of the inhibitors for 2 h at room temperature; 20 mM HEPES, 145 mM NaCl, 5 mM CaCl2, 0.05% Triton X-100, pH 7.5; Z-Lys-SBzl substrate, read at 410 nm
[1] = biological target: active MASP-3cf (catalytic fragment of active MASP-3 containing the CCP1-CCP2-SP domains) (human) (UniProt P48740); test: as above
[2] = biological target: active MASP-3cf (catalytic fragment of active MASP-3 containing the CCP1-CCP2-SP domains) (human) (UniProt P48740); test: enzyme inhibition assay (equilibrium KI from residual activity, photometric); Ca2+-free buffer: 20 mM HEPES, 150 mM NaCl, 0.1 mM EDTA, 0.05% Triton-X100, pH 7.4
TFMI-3_HA (human) = TFMI-3_HA (human) (UniProt P10646); test: SPR; ProteOn XPR36, GLM chip; TFMI-3_HA captured on immobilised anti-HA antibody (50-80 RU), MASP-3cf injected; 20 mM HEPES, 150 mM NaCl, 5 mM CaCl2, 0.05% Triton X-100, pH 7.4; 1:1 Langmuir model

Ki (active MASP-2cf (human)): 75000 nM | Ki [1]: 11.1 nM | Ki [2]: 9.9 nM
Molecule: TFPI-based MASP-3 Inhibitor (TFMI-3) (from UniProt P10646 121-178) (designed binder)

Kd (TFMI-3_HA (human)): 17.7 nM | koff (TFMI-3_HA (human)): 0.00093 s⁻¹ | kon (TFMI-3_HA (human)): 52500 M⁻¹ s⁻¹
B1: active MASP-3cf (catalytic fragment of active MASP-3 containing the CCP1-CCP2-SP domains) (enzyme)
chain: IIGGRNAEPGLFPWQALIVVEDTSRVPNDKWFGSGALLSASWILTAAHVLRSQRRDTTVIPVSKEHVTVYLGLHDVRDKSGAVNSSAARVVLHPDFNIQNYNHDIALVQLQEPVPLGPHVMPVCLPRLEPEGPAPHMLGLVAGWGISNPNVTVDEIISSGTRTLSDVLQYVKLPVVPHAECKTSYESRSGNYSVTENMFCAGYYEGGKDTCLGDSGGAFVIFDDLSQRWVVQGLVSWGGPEECGSKQVYGVYTKVSNYVDWVWEQMGLPQSVVEPQVER
